Assay results as given in patent US20240026017A1 (Kyowa Kirin, published 2024).

T1: NC3-mCCR1 (chimeric receptor in which positions 1 to 31 of mouse CCR1 were substituted with the corresponding … (human; mouse, UniProt P51677 1-31)
T1 construct: expressed on CHO-S cells; End 355 from the stated total length of CCR1; also called CHO-S-NC3-mCCR1 (expressing cells)
T1 sequence: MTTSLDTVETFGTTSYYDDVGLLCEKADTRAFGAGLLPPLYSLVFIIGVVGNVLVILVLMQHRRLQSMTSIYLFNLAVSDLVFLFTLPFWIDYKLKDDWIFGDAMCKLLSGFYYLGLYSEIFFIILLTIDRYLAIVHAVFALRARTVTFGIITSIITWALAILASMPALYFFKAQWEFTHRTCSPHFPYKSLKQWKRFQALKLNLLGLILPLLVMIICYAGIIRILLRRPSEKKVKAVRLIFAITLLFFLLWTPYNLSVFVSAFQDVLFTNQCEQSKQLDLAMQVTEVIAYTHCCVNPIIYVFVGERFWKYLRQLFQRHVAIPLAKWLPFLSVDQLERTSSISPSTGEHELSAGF

T2: human CC chemokine receptor 1 (human CCR1) (human, UniProt P32246 1-355)
T2 construct: endogenous on THP-1 cells in the migration assays; also called hCCR1; CHO-S-hCCR1 (expressing cells)
T2 sequence: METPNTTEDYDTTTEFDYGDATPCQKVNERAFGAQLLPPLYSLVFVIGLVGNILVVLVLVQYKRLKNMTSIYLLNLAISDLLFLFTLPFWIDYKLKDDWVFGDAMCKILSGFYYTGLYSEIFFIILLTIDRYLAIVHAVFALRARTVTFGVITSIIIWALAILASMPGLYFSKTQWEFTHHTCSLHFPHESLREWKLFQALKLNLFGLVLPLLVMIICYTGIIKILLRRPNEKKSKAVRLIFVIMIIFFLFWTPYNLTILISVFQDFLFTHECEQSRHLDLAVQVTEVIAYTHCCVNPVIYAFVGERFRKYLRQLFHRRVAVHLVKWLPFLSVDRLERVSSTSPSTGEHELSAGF

T3: human CCR3 (human, UniProt P51677 1-355)
T3 construct: whole, on cells; also called hCCR3; CHO-S-hCCR3 (expressing cells)
T3 sequence (looked up): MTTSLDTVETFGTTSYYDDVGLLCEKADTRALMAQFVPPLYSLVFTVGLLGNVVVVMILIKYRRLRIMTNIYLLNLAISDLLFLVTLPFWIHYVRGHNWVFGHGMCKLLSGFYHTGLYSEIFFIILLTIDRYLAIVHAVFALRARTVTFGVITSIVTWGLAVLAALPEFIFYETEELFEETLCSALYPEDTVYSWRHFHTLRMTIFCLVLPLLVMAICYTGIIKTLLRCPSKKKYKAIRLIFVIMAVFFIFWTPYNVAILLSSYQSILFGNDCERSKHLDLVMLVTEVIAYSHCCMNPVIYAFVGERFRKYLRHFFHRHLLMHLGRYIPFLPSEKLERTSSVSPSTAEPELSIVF


Target: T1, NC3-mCCR1 (chimeric receptor in which …)
Assay: flow cytometry on CHO-S-NC3-mCCR1 cells, hybridoma culture supernatant diluted 10-fold
Excerpt: (§1) As test antibodies, each hybridoma culture supernatant diluted 10-fold, an existing mouse anti-human CCR1 monoclonal antibody 53504 antibody (R & D Technologies), and a mouse anti-human CCR3 monoclonal antibody 444-11 antibody (MBL) were used.
(§2) Regarding the measurement results, the fluorescence intensity when a certain cell was stained with a certain test antibody (each hybridoma culture supernatant, 53504 antibody or 444-11 antibody) and a secondary antibody was divided by the fluorescence intensity when the cell was stained only with the secondary antibody. […] In Table 2, the results are indicated as A and B, respectively.

Row | fluorescence intensity ratio (test antibody + secondary / secondary only) [fold] | Binder
1 | < 10 | KM5955 antibody (antibody, mouse IgG2a, V domains shown, mouse IgG2a from hybridoma) VH: EVQLVESGGGLVKPGGSLKLSCAASGFTLRDFGMHWVRQVPEKGLEWVAYISSGRTAISYVDKVKGRFTISRDNAKNTLFLQMTSLRSEDTAMYYCARRPYSKSYAMDYWGQGTSVTVSS VL: DVVLTQTPLSLPVNIGDQASISCKSIKSLLNSDGFTYLDWYLQKPGQSPQLLIYLVSNRFSGVPDRFSGSGSGTDFTLKIRRVEAEDLGVYYCFQSNYLPLTFGAGTKLELK

Target: T2, human CC chemokine receptor 1 (human …)
Assay: flow cytometry on CHO-S-hCCR1 cells, antibody 3.2 to 10,000 ng/mL, Geomean compared
Procedure: The antigen affinity of the chKM5908′ antibody, which is a VL-substituted chimeric antibody, was measured by flow cytometry using the CHO-S-hCCR1 cells produced in Example 2. The cells were collected by centrifugation, the supernatant was removed, and the cells were suspended in PBS (Staining Medium, hereinafter, abbreviated as SM) containing 2% fetal bovine serum (FBS), 0.05% NaN₃, and 1 mM EDTA. Next, the cells were seeded in a 96-well plate so that the number of cells is 1×10⁵ per well, and the chKM5908′ antibody was added at each final concentration of 10,000, 2,000, 400, 80, 16, and 3.2 ng/mL, and the reaction was performed at 4° C. for 60 minutes. After washing the cells with SM, Goat F (ab′)₂ Anti-Human IgG PE (γ chain specific) (Southern Biotech) diluted 500-fold with SM was added and reacted at 4° C. for 60 minutes. After washing the cells with SM, the cells were resuspended in 50 μL of SM, and the fluorescence intensity was measured by the flow cytometry (FACS Canto II, BD Biosciences).
The data was analyzed by FlowJo 7.65 (Tommy Digital Biology Co., Ltd.), and the binding strength was compared from the Geomean value at each concentration.

Row | binding result | Binder
2 | binds | chKM5908′ antibody (antibody, V domains shown, chimeric; also called VL-substituted chimeric antibody (VH of chKM5908, VL of chKM5914)) VH: QVQLKQSGPGLVQPSQSLSITCTVSGFSLNNYGVHWVRQPPGKGLEWLGVIWSAGTTVYNAAFISRLSISKDDSKSQVFFKMNSLQAGDTAIYYCAKDGSRYYTAMDYWGQGTSVTVSS VL: DVVMTQTPLSLPVSLGDQASIFCRSSQSLVHRNGITFFHWYLQKPGQSPKLLIYKVSNRFSGVPDRFSGSGSGTDFTLKISRVAPDDLGVYFCSQGTHVPPTFGGGTKLEIK

Target: T3, human CCR3
Assay: flow cytometry on CHO-S-hCCR3 cells, hybridoma culture supernatant diluted 10-fold
Excerpt: as §1, §2

Row | fluorescence intensity ratio (test antibody + secondary / secondary only) [fold] | Binder
3 | < 10 | KM5908 antibody (antibody, mouse IgG2a, V domains shown, mouse IgG2a from hybridoma) VH: QVQLKQSGPGLVQPSQSLSITCTVSGFSLNNYGVHWVRQPPGKGLEWLGVIWSAGTTVYNAAFISRLSISKDDSKSQVFFKMNSLQAGDTAIYYCAKDGSRYYTAMDYWGQGTSVTVSS VL: DVVMTQTPRSLPVSLGDQASISCRSRQSLIHSNGITFLHWYLQKAGQSPKLLIYKVSNRFSGVPDRFSGSGSGTDFTLRISRVEAEDLGVYFCSQGTHVPPTFGGGTKLEIK
4 | < 10 | KM5907 antibody (antibody, mouse IgG1, V domains shown, mouse IgG1 from hybridoma) VH: EVQVVESGGNLVKPGGSLKLSCSASGFTFSRYGMSWVRQTPDKRLEWVASISATFTYTYYTDNVKGRFTISRDNAKNTLYLQMSSLRSEDTGMYYCTRQDNYAWFDSWGQGTLVTVSA VL: DVLMTQTPLSLPVSLGDQVSISCRSSQSIVHSNGNTFLEWYLKKPGQSPKLLIYKVSSRFSGVPDRFSGSGSGTDFTLKIRRVEADDLGVYYCFQGSHIPWTFGGGTNLEIK
5 | < 10 | KM5954 antibody (antibody, mouse IgG2a, V domains shown, mouse IgG2a from hybridoma) VH: QVQLKESGPGLVAPSQSLSITCTVSGFSLPRYTITWVRQPPGKGLEWLGLIRTGGGTIYNSALKSRLSISKDNSKSQVFLKMNSLQSGDTARYYCARNGAYYSKSGSYWYFDVWGTGTTVTVSS VL: QIVLTQSPAIMSVSLGEEITLTCSASSSVSYMHWYQQKSGTSPKLLIYSTSNLASGVPSRFSGSGSGTFYSLTISSVEAEDAADYYCHQWSSHPCTFGGGTKLEIK
6 | < 10 | KM5956 antibody (antibody, mouse IgG2a, V domains shown, mouse IgG2a from hybridoma) VH: QVQLKESGPGLVAPSQSLSITCTVSGFSLARYTITWVRQPPGKGLEWLGLIRTGGGTIYNSALKSRLSISKDNSKSQVFLKMNSLQSGDTARYYCARNGAYYSNSGSYWYFDVWGTGTTVTVSS VL: QIVLTQSPAIMSASLGEEITLTCSASSSVTYMHWYQQKSGTSPKLLIYSTSNLASGVPSRFSGSGSGTFYSLTISSVEAEDAADYYCHQWSSHPCTFGGGAKLEIK
7 | < 10 | KM5909 antibody (antibody, mouse IgG1, V domains shown, mouse IgG1 from hybridoma) VH: EVQLVESGGDLVKPGGSLKLSCAASGFTLSNYGMSWVRQTPDKRLEWVASISIGNYIYYLDSVKGRFTIYRDNAKNTLFLQMRSLKSEDTAMYHCARQGNDYDWFTYWGQGTLVTVSA VL: DVLMTQTPLSLPVSLGDQASISCRSSQSVVHTNGNTYLEWYLQKPGQSPKLLIYKVSNRFSGVPDRFSGSGSGTDFTLKINRVEAEDLGVYYCFQGSHLPWTFGGGTKLEIK
8 | < 10 | KM5915 antibody (antibody, mouse IgG2b, V domains shown, mouse IgG2b from hybridoma) VH: EVQLVESGGDLVKPGGSLKLSCAASGFTFSNYGMSWVRQTPDKRLEWVASISIGSYIYYLDSVKGRFTIYRDNAKNTLFLQMRSLKSEDTAMYHCARQGNDYDWFAYWGQGTLVTVSA VL: DVLMTQTPLSLPVSLGDQASISCRSSQNIVHTNGNTYLEWYLQKPGQSPKLLIYKVSNRFSGVPDRFSGSGSGTDFTLKISRVEAEDLGVYYCFQGSHLPWTFGGGTKLEIK
9 | < 10 | KM5911 antibody (antibody, mouse IgG2b, V domains shown, mouse IgG2b from hybridoma) VH: DVKLVESGEGLVKPGGSLKLSCAASGFTFSRNAMSWVRQTPEKRMEWVAYISSGGDYIYYADTVKGRFTVSRDNARNTLYLRMSSLKSEDTAMYYCTRFSYGYAKNALDYWGQGTSVTVSS VL: DIQMTQSPSSLSASLGGKVTITCKASQDIKKYIAWYQHKPGKGPRLLIHYTSSLQPGIPSRFSGSGSGRDYSFSISNLEPEDIATYYCLQYDYLMTFGGGTKLEIK
10 | < 10 | KM5916 antibody (antibody, mouse IgG2b, V domains shown, mouse IgG2b from hybridoma) VH: DVKLVESGEGLVKPGGSLKLSCAASGFTFSRNAMSWVRQTPEKRLEWVAYISSGSDYIYYADTVKGRFTVSRDNARNTLYLQMTSLRSEDTAMYFCTRFSYGYGKNAPDYWGQGTSVTVSS VL: DIQMTQSPSSLSASLGGKVTITCKASQDINKYIAWYQHKPGQGPRLLIHYTSSLQPGIPSRFSGSGSGRDYSFSISNLEPEDIATYYCLQYDYTMTFGGGTKLEIR
11 | < 10 | KM5955 antibody (antibody, mouse IgG2a, V domains shown, mouse IgG2a from hybridoma) VH: EVQLVESGGGLVKPGGSLKLSCAASGFTLRDFGMHWVRQVPEKGLEWVAYISSGRTAISYVDKVKGRFTISRDNAKNTLFLQMTSLRSEDTAMYYCARRPYSKSYAMDYWGQGTSVTVSS VL: DVVLTQTPLSLPVNIGDQASISCKSIKSLLNSDGFTYLDWYLQKPGQSPQLLIYLVSNRFSGVPDRFSGSGSGTDFTLKIRRVEAEDLGVYYCFQSNYLPLTFGAGTKLELK

Target: T2, human CC chemokine receptor 1 (human …)
Assay: cell-based or functional assay

Row | antibody concentration showing THP-1 migration inhibitory activity [µg/mL] | Binder
12 | ≥ 0.3 | hzmAb5-06 LV5HV14 antibody (antibody, V domains shown) VH: QVQLQQSGPGLVKPSQTLSITCTVSGFSLNNYGVHWVRQPPGKGLEWLGVIWSAGTTVYNAAAISRLTISKDTSKNQVSFKMSSLTAADTAVYYCAKDGSRYYTAMDYWGQGTLVTVSS VL: DVVMTQSPLSLPVTLGEPASISCRSSQSLVHRNGITFFHWYLQKPGQSPKLLIYKISNRFSGVPDRFSGSGSGTDFTLKISRVEAEDVGVYFCSQGTHVPPTFGQGTKLEIK
13 | ≥ 0.3 | hzKM5907 LV2bHV3a antibody (antibody, V domains shown) VH: EVQLLESGGGLVQPGGSLRLSCAASGFTFSRYGMSWVRQAPGKRLEWVSSISATFTYTYYTDNVKGRFTISRDNSKNTLYLQMNSLRAEDTGVYYCARQDNYAWFDSWGQGTLVTVSS VL: DIVMTQTPLSLPVTSGEPVSISCRSSQSIVHSNGNTFLEWYLKKPGQSPQLLIYKVSSRFSGVPDRFSGSGSGTDFTLKISRVEAEDVGVYYCFQGSHIPWTFGGGTKVEIK
14 | ≥ 0.3 | hzKM5916 LV2HV0 antibody (antibody, V domains shown) VH: QVQLQESGGGLVKPGGSLKLSCAASGFTFSRNAMSWVRQTPDKRLEWVAYISSGSDYIYYADTVKGRFTISRDNAKNTLYLQMSSLKSEDTAMYYCARFSYGYGKNAPDYWGQGTMVTVSS VL: DIQMTQSPSSLSASVGDRVTITCKASQDINKYIAWYQHKPGKGPKLLIHYTSSLQPGVPSRFSGSGSGTDFSFTISSLQPEDLATYYCLQYDYTMTFGGGTKVEIK
